Reference: publication PMC7138851, “Quantitative assessment of the determinant structural differences between redox-active and inactive glutaredoxins” (Nature Communications, 2020)
Values joined by “and” are separate entries in the source; they are usually repeats but may differ in a detail not shown here. Equal values may be shown once.

Tests used:
ScGrx7 = biological target: T1, ScGrx7 (Saccharomyces cerevisiae, UniProt P38068); parameters: Disulfide oxidoreductase assay, steady-state kinetics, coupled NADPH consumption at 340 nm, pH 8.0, 25 °C; settings: apparent Km at highest fixed GSH concentration; substrate; read-out: Km app(HEDS)
T1 construct: gene GRX7; E. coli XL1-Blue, pQE30; N-terminal MRGS(H)6 tag
T1 sequence (P38068 33-203): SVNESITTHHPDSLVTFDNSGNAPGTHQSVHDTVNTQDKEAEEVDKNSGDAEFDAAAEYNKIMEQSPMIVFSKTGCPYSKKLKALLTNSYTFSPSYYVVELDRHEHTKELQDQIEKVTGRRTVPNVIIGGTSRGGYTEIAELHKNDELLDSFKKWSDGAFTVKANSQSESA
Description: Steady-state kinetics of wild-type and mutant ScGrx7 and HsGrx5^C122S in the GSSCys and [compound left out] assays were determined spectrophotometrically by monitoring the consumption of NADPH at 340 nm and 25 °C using a thermostated Jasco V-650 UV/vis spectrophotometer[11],[19],[25]. Fresh stock solutions of NADPH, GSH, GR, and GSSCys or [compound left out] were prepared in assay buffer containing 0.1 M Tris/HCl, 1 mM EDTA, pH 8.0 before each experiment. Both assays were performed with 0.1 mM NADPH and 1 U/ml ScGR. […] NADPH, GSH, and GR were mixed in assay buffer before Grx was added and a baseline was recorded for 30 s. […] The absorbance of a reference cuvette containing all components but no Grx was measured in parallel and subtracted from the obtained Grx activity. […] NADPH, GSH, and [compound left out] were preincubated in assay buffer for 2 min before GR was added and a baseline was recorded for 30 s. […] Kinetic data were analyzed in Excel and SigmaPlot 13 by nonlinear and linear regression according to Michaelis–Menten, Lineweaver–Burk, Eadie–Hofstee, and Hanes theory[11],[19],[25].

Cys108 [1] = biological target: Cys108 (UniProt position 108, FSKTGCPYSKK); assay: chemical modification; settings: 23 °C, 100 mM KCl in a constant-ionic-strength three-buffer system (value not stated), 50 mM potassium acetate, 50 mM MES, 100 mM Tris, Freshly reduced (NaBH4) free enzyme, no glutathione bound
HsGrx5 = biological target: T2, HsGrx5 (Homo sapiens, UniProt Q86SX6, C122S); assay: UV/vis absorbance of purified protein; assay type: binding; settings: as purified from E. coli; cluster type not determined here
T2 construct: gene GLRX5; E. coli XL1-Blue, pQE30; N-terminal MRGS(H)6 tag; C122S in all constructs
T2 sequence (Q86SX6 32-157 C122S): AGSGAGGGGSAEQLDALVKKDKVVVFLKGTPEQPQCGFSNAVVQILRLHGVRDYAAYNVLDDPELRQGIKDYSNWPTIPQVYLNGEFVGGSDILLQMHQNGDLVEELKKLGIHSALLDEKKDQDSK

Cys108 [2] = biological target: Cys108 (UniProt position 108, FSATGCPYSKK); assay: chemical modification; settings: 23 °C (alkylation step), 25 °C (HEDS activity read-out), 100 mM KCl in a constant-ionic-strength three-buffer system, the ionic strength value is not stated, 50 mM potassium acetate, 50 mM MES, 100 mM Tris, Free enzyme, freshly reduced with a 20-fold molar excess of NaBH4, 6 µM protein
Cys108 [3] = biological target: Cys108 (UniProt position 108, FSETGCPYSKK); assay: chemical modification; settings: 23 °C, 100 mM KCl in a constant-ionic-strength three-buffer system (value not stated), 50 mM potassium acetate, 50 mM MES, 100 mM Tris, Freshly reduced (NaBH4) free enzyme, no glutathione bound
[4] = substrate: N[C@@H](CCC(=O)N[C@@H](CSSC[C@H](N)C(=O)O)C(=O)NCC(=O)O)C(=O)O; assay: purified protein, by the assay type; parameters: GSSCys oxidoreductase assay, GR-coupled NADPH consumption at 340 nm, apparent Km from Hanes plots; settings: pH 8.0; 25.0 °C
Description: (§1) Steady-state kinetics of wild-type and mutant ScGrx7 and HsGrx5^C122S in the GSSCys and [compound left out] assays were determined spectrophotometrically by monitoring the consumption of NADPH at 340 nm and 25 °C using a thermostated Jasco V-650 UV/vis spectrophotometer[11],[19],[25]. Fresh stock solutions of NADPH, GSH, GR, and GSSCys or [compound left out] were prepared in assay buffer containing 0.1 M Tris/HCl, 1 mM EDTA, pH 8.0 before each experiment. Both assays were performed with 0.1 mM NADPH and 1 U/ml ScGR. The following final protein concentrations were used for Y110F/H/A (5–150 nM), D144A/K (10 nM), E147A/K (10 nM), R153A/E (25–50 nM), ScGrx7^WP (20 nM), ScGrx7^loop (up to 1.4 µM), ScGrx7^WP+loop (up 2.6 µM), HsGrx5^C122S (up to 15 µM), HsGrx5^RR (up to 12 µM), HsGrx5^loop (up to 1.6 µM), and HsGrx5^RR+loop (up to 4.0 µM). For the GSSCys assays, GSH was varied between 50 µM and 1.5 mM at fixed GSSCys concentrations (25, 50, 100, and 150 µM). NADPH, GSH, and GR were mixed in assay buffer before Grx was added and a baseline was recorded for 30 s. All GSSCys assays were started by the addition of GSSCys. The absorbance of a reference cuvette containing all components but no Grx was measured in parallel and subtracted from the obtained Grx activity. For the [compound left out] assays, GSH was varied between 100 µM and 2.0 mM at fixed concentrations of [compound left out] (0.18, 0.37, 0.55, and 0.74 mM). NADPH, GSH, and [compound left out] were preincubated in assay buffer for 2 min before GR was added and a baseline was recorded for 30 s. All [compound left out] assays were started by the addition of enzyme. Kinetic data were analyzed in Excel and SigmaPlot 13 by nonlinear and linear regression according to Michaelis–Menten, Lineweaver–Burk, Eadie–Hofstee, and Hanes theory[11],[19],[25]. 29 Supplementary Figure 15 Supplementary Figure 15 | GSSCys assay steady-state kinetics of HsGrx5loop and HsGrx5RR+loop . […] The activities of HsGrx5 and HsGrx5RR were similar to the NADPH consumption of negative controls without enzyme and could not be analyzed.

[5] = substrate: N[C@@H](CCC(=O)N[C@@H](CS)C(=O)NCC(=O)O)C(=O)O; assay: purified protein, by the assay type; parameters: GSSCys oxidoreductase assay, GR-coupled NADPH consumption at 340 nm, apparent Km from Hanes plots; settings: pH 8.0; 25.0 °C
Description: as §1

`OCCSSCCO` [HEDS] gave a Km (ScGrx7) of 820 ± 190 µM.

With “Glutaredoxin 7 (ScGrx7), wild type (Saccharomyces cerevisiae)” the pKa (Cys108 [1]) was 4.3 ± 0.1 and 4.48.

With `[S]1[Fe][S][Fe]1` [iron–sulfur cluster] the “UV/vis absorbance of purified protein” value (HsGrx5) was “Freshly purified recombinant wild-type HsGrx5 contained an iron–sulfur cluster”.

Molecule “Glutaredoxin 7 (ScGrx7) K105A (Saccharomyces cerevisiae; K105A)” has a pKa (Cys108 [2]) of 4.4 ± 0.1.

In the case of “Glutaredoxin 7 (ScGrx7) K105E (Saccharomyces cerevisiae; K105E)”, the pKa (Cys108 [3]) is reported as 5.0 ± 0.1.

B1: HsGrx5 (Homo sapiens; C122S/DEL60-64/P65T/Q66G) (protein)
chain: AGSGAGGGGSAEQLDALVKKDKVVVFLKTGCGFSNAVVQILRLHGVRDYAAYNVLDDPELRQGIKDYSNWPTIPQVYLNGEFVGGSDILLQMHQNGDLVEELKKLGIHSALLDEKKDQDSK
notes: E. coli XL1-Blue, pQE30; N-terminal MRGS(H)6 tag; C122S in all constructs
B1 was tested, and the kcat/Km [4] was 1500 M⁻¹ s⁻¹ and 1600 M⁻¹ s⁻¹, the kcat [5] was 0.18 s⁻¹ and 0.27 s⁻¹ and the kcat/Km [5] was 3900 M⁻¹ s⁻¹ and 4800 M⁻¹ s⁻¹.
